“Also recorded” adds a separate entry of the source.
Key:
[1] = tested on: Prkci^fl/flPrkcz^fl/fl; Villin-Cre tumors; assay: scRNAseq, CellphoneDB and multiplex staining of Prkci^fl/flPrkcz^fl/fl; Villin-Cre tumors treated with PEGPH20; format: in vivo, mouse
Description: FIG. 10A illustrates experimental design and workflow of scRNAseq. Tumors from Veh (n=5) and PEGPH20-treated mice (n=3) were dissected and digested into single-cell suspensions for sequencing.
Primary antibody dilutions were optimized individually at H220 retrieval using the Leica BondRx Automated IHC stainer and evaluated by a board-certified pathologist for specificity. Multiplexed staining was optimized and then performed using the Automated Opal 7-Color IHC Kit (NEL821001KT) from Akoya Biosciences. A library for spectral separation was generated by staining control tissue with each opal fluor conjugated to CD20. Slides were imaged in the Vectra Polaris Automated Quantitative Pathology Multispectral Imaging System. Exposure times were maximized under the constraint that no pixel saturates the detector (Patel and Rodig, 2020; Patel et al., 2019).
Tumors were minced thoroughly and digested by 0.5 mg/ml Liberase TH (Sigma) for 30 minutes at 37° C. Dead cells were removed by Annexin V (STEMCELL technologies). scRNAseq libraries were generated using the Chromium Single Cell 30 Reagent Kit v2 (10× Genomics). Cells were loaded onto the 10× Chromium Single Cell Platform (10× Genomics) at a concentration of 2,000 cells per μl (Single Cell 3′ library and Gel Bead Kit v.2) as described in the manufacturer's protocol (10× User Guide, Revision B). Generation of gel beads in emulsion (GEMs), barcoding, GEM-RT clean-up, complementary DNA amplification and library construction were all performed as per the manufacturer's protocol. Individual sample quality was checked using a Bioanalyzer Tapestation (Agilent). Qubit was used for library quantification before pooling. The final library pool was sequenced on an Illumina NovaSeq6000 instrument using a S1 flow cell. Average cell recovery for Prkci^f/fPrkcz^f/f; Villin-Cre tumors was […] with a total of 209,907 cells captured at a mean depth of 14,568 read per cell and 895 mean genes per cell.
For scRNA-seq, raw sequence reads were quality-checked using FastQC software. The Cell Ranger version 2.1.1 software suite from 10× Genomics (https://support.10× genomics.com/single-cell-gene-expression/software/downloads/latest) was used to process, align, and summarize unique molecular identifier (UMI) counts against the mouse mm10 assembly reference genome analysis set, obtained from the University of California Santa Cruz (UCSC). Raw, unfiltered count matrices were imported into R for further processing. Raw UMI count matrices were filtered using the Seurat v 3.0 R package (Butler et al., 2018) to remove: barcodes with very low (less than 200, empty wells) and very high (more than 3000, probably doublets) total UMI counts; matrices for which a high percentage of UMIs originated from mitochondrial features (more than 12%); and matrices for which fewer than 250 genes were expressed. Subsequently, the data were normalized using the SCTransform function, regressing out the following variables: total number of UMIs per cell and percentage of mitochondrial UMIs. Following normalization, the principal components were computed. The top principal components were identified using the ElbowPlot function and used for the UMAP dimensionality reduction. For clustering, Seurat was used in combination with Harmony software (Korsunsky et al., 2019) to correct the potential effects of technical differences between sequencing batches. The RunHarmonyo, RunUMAP( ), FindNeighbors( ), and FindClusters( ) functions were run for clustering and the percentage of mitochondrial features was considered to be a source of unwanted variation and was regressed out using the Seurat package. […] For the differential gene expression analysis, the FindMarker( ) function with default parameters was run for comparison between populations. The cell groups were annotated based on the marker gene analysis and canonical markers from the literature. […]

[2] = tested on: MTO-sgPrkci/sgPrkcz tumors; assay: Subcutaneous sgPrkci/Prkcz MTO tumors: PEGPH20 combined with anti-PD-L1; format: in vivo, mouse
Method: FIGS. 13B-13F illustrate Subcutaneous injection of sgPrkci/Prkcz MTOs in WT mice treated twice a week with PEGPH20 (0.0375 mg/kg) and αPD-L1 (5 mg/kg) for 4 weeks (n:Veh=14, PEGPH20-treated=15 and PEGPH20-treated with αPD-L1=15). Experimental design (B); tumor volume (C); tumor weight (D); IHC for HA, αSMA, CD8, FOXP3, S100a8, and CD19 of tumors (E) and quantification (F). Scale bars, 100 μm. Results are shown as mean±SEM *p<0.05, **p<0.01, ***p<0.001, ****p<0.0001.
For colonoscopy-guided orthotopic injection in the colon submucosa using mouse tumor organoids (MTOs), a 10 μl organoid suspension of equivalent to 40-50 MTOs admixed with 10% Matrigel (Corning) was directly injected into the colonic submucosa of 7 weeks old C57BL/6 mice. 4 weeks after implantation, tumors were collected and analyzed histologically. Orthotopic tumor sizes were measured by caliper after mice were sacrificed. For xenografts using MTOs, a 100 μl cell suspension of equivalent to 0.5×10^6 cells of sgPrkci/Prkcz or sgC MTOs admixed with 30% Matrigel (Corning) was directly injected subcutaneously into the right flank of 7 weeks old C57BL/6 mice. Tumors were allowed to grow for 14 days, and mice were randomly divided to receive vehicle, n=20, or PEGPH20 (0.0375 mg/kg, 2 days each week) via retro-orbital injection, n=18. Tumors were measured twice a week. Mice were euthanized three weeks after treatment and tumors were analyzed histologically. For the combination therapy of anti-PD-L1 (Clone B7-H1, Bioxcell) antibody and PEGPH20, mice were injected with a dose of 5 mg/kg (body mass) of anti-PD-L1 antibody in combination with PEGPH20 (n=15) twice a week for 4 weeks until they were sacrificed.

[3] = scRNAseq tumor epithelial cells

B1: PEGPH20: a PEGylated version of human recombinant PH20 hyaluronidase; clinical-grade pegylated hyaluronidase (Halozyme Therapeutics) (protein, UniProt P38567 36-490, looked up)
Hyaluronidase PH-20: LNFRAPPVIPNVPFLWAWNAPSEFCLGKFDEPLDMSLFSFIGSPRINATGQGVTIFYVDRLGYYPYIDSITGVTVNGGIPQKISLQDHLDKAKKDITFYMPVDNLGMAVIDWEEWRPTWARNWKPKDVYKNRSIELVQQQNVQLSLTEATEKAKQEFEKAGKDFLVETIKLGKLLRPNHLWGYYLFPDCYNHHYKKPGYNGSCFNVEIKRNDDLSWLWNESTALYPSIYLNTQQSPVAATLYVRNRVREAIRVSKIPDAKSPLPVFAYTRIVFTDQVLKFLSQDELVYTFGETVALGASGIVIWGTLSIMRSMKSCLLLDNYMETILNPYIINVTLAAKMCSQVLCQEQGVCIRKNWNSSDYLHLNPDNFAIQLEKGGKFTVRGKPTLEDLEQFSEKFYCSCYSTLSCKEKADVKDTDAVDVCIADGVCIDAFLKPPMETEEPQIFYNASPSTLS
modifications: PEGylated
- TGFβ signals provided by myeloid cells and CD4+ Tregs ([1]; CellphoneDB): reduced
- communications between TRSC and trophocytes ([1]; CellphoneDB): induced a high number
- interaction between Spp1-Ptger4/Cd44 in fibroblasts and Spp1 interactions between telocytes and CD4+ Tregs ([1]; CellphoneDB): eliminates
- interactions between TFSCs and telocytes ([1]; CellphoneDB): switching off
- secretion of Ccl27a in TRSCs, Ccl28 in TcTAs and residual TFSCs, Ccl25 in TcTAs and TFSCs ([1]; CellphoneDB): increased
- secretion of growth signals from telocytes to myeloid cells and CD4+ Tregs ([1]; CellphoneDB): repressed
- Rspo1/3 in trophocytes ([1]; CellphoneDB, interact with Lgr5 in TRSC): enriched
- presence of TFSCs (ANXA10+ staining) ([1]; IHC): strongly reduced
- presence of TRSCs (CLU+ staining) ([1]; IHC): not reduced
- ANXA10+/Alcian Blue and ANXA10+/MUC2+ TGCs ([1]; IHC and multiplex imaging): reduced
- flow from TcTA to TFSC ([1]; RNA velocity trajectory analysis): total disruption
- myeloid cells and CD4+ Tregs in tumors ([1]; VECTRA multiplex imaging): concomitant reduction
- B, plasma, and CD8+ T cells infiltrating the tumors ([1]; VECTRA multiplex imaging, CD138 staining): allows CD8+ T cell infiltration; also recorded: strong recruitment
- collagens, matrix metalloproteinases, and signatures related to matrix remodeling in the intermediate fibroblasts ([1]; differential gene expression): substantial reduction
- vessel normalization signature ([1]; endothelial compartment): increased
- angiogenesis, glycolysis, and hypoxia signatures ([1]; endothelium compartment): reduced
- signatures related to interferon activation ([1]; endothelium compartment): increased
- trophocyte levels (PDGRA−/CD31−/CD34+) ([1]; immunofluorescence, mainly at the crypt-bottom positions): strongly increased
- PDGFRA+/NRG1+ fibroblasts at the luminal border ([1]; multiplex immunofluorescence): significantly reduced
- expression of several ICIs, including Ctla4, in CD4+ Tregs ([1]; scRNAseq): higher expression
- Cd47 immune checkpoint inhibitor expression ([1]; scRNAseq / CellphoneDB): clear increase
- signatures corresponding to CD8+ T cells exhaustion, stem-like, and expansion ([1]; scRNAseq CD8+ T cells): enrichment
- CD4+ Treg cells ([1]; scRNAseq T cells): reduced
- CD8+/Treg ratio ([1]; scRNAseq T cells): increased
- proportion of CD8+ Trm and CD8+ Tex cells ([1]; scRNAseq T cells): increased
- proportion of tip cells and postcapillary and immature endothelial cells ([1]; scRNAseq endothelial compartment): reduced
- proportion of intermediate fibroblast ([1]; scRNAseq fibroblasts): not affected
- trophocytes ([1]; scRNAseq fibroblasts): concomitant accumulation
- telocyte population ([1]; scRNAseq fibroblasts, HA degradation in vivo): virtually eliminated
- proportion of TGCs ([1]; scRNAseq goblet cells): strongly reduced
- levels of myeloid cell types (TAN, TAM, IM) ([1]; scRNAseq immune cells): reduced
- proportion of T and B cells ([1]; scRNAseq immune cells): increased
- proportion of TFSCs [1, 3]: clear reduction
- proportion of TRSCs in the persistent tumor cell population [1, 3]: relative enrichment
- proportion of TcTAs [1, 3]: limited proportional reduction
- vessel disorganization signature ([1]; whole endothelial compartment): reversed
- CD8+ T and B cells in the tumor ([2]; IHC CD8, CD19): sufficient to bring
- amount of immunosuppressive myeloid and Tregs ([2]; IHC S100a8, FOXP3): reduce
- HA content and intensity of αSMA+ stromal staining ([2]; IHC, PEGPH20 0.0375 mg/kg, 4 weeks): reduced

From patent publication US20240377400A1, “METHODS FOR TREATING A SUBTYPE OF COLORECTAL CANCER” (Cornell University, priority 2021, published 2024)
